These are literature values, as cited in doi:10.1101/2024.09.16.613101.

The target in one data set is His57 (UniProt position 57, VVTAAHCGVTT). Particulars: not stated (the structure used for prediction is described as the apoenzyme).
The target of a further data set is Cys46 (UniProt position 47, DFTFVCPTELG).
A further data set concerns the target Glu28 (UniProt position 54, GYQLHEDGETV). Briefly: NMR. Particulars: native (folded) state, according to the title of ref 70; ligand state not stated.
The next data set deals with Glu58 (UniProt position 84, SSPYYEWPILS). Briefly: NMR. Particulars: native (folded) state, according to the title of ref 70; ligand state not stated.
The target of the next data set is His27 (UniProt position 53, AGYQLHEDGET). Briefly: NMR. Particulars: native (folded) state, according to the title of ref 70; ligand state not stated.
Another data set addresses His40 (UniProt position 66, SNSYPHKYNNY). Briefly: NMR. Particulars: native (folded) state, according to the title of ref 70; ligand state not stated.
The next data set has as its target His92 (UniProt position 118, AGVITHTGASG). Briefly: NMR. The following applies: native (folded) state, according to the title of ref 70; ligand state not stated.

Take chymotrypsin: in the data set with His57, the pKa was 7.5.
In the case of “peroxiredoxin AhpC (alkyl hydroperoxide reductase subunit C) (bacterial (species not stated in the article))”, in the data set with Cys46, the pKa is on record as 5.94.
As to “ribonuclease T1 (Aspergillus oryzae (not stated in the article; inferred))”, the pKa with Glu28 is 5.61; in the data set with Glu58, 3.96; in the data set with His27 it was 7.57; in the data set with His40, 7.44; in the data set with His92 it was 7.31.
